B1: THAP1; numbered along this chain (parent)
chain: MVQSCSAYGCKNRYDKDKPVSFHKFPLTRPSLCKEWEAAVRRKNFKPTKYSSICSEHFTPDCFKRECNNKLLKENAVPTIFLCTEPHDKKEDLLEPQEQLPPPPLPPPVSQVDAAIGLLMPPLQTPVNLSVFCDHNYTVEDTMHQRKRIHQLEQQVEKLRKKLKTAQQRCRRQERQLEKLKEVVHFQKEKDDVSERGYVILPNDYFEIVEVPA

Variants of: B1
Assay: THAP1 transcriptional activity (GFP+/GFP- enrichment relative to wild-type constructs) (ratio to WT); higher = more THAP1 activity (PSMB5 reporter activation)
Conditions: with PSMB5 promoter-GFP reporter
In short: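 In duplicate, a lentivirus-delivered library with every residue from 2–213 of human THAP1 changed to all 20 amino acids was introduced at MOI ~0.3 into THAP1-knockout HEK-293T cells carrying endogenous PSMB5 tagged by mClover3 knock-in. Five days on, BFP+ cells were binned as GFP-dim or GFP-bright, and Illumina sequencing of genomic DNA amplicons counted each variant. Activity is the bright/dim read fold change, averaged over replicates and scaled to the mean of wild-type synonymous constructs.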

THAP1 transcriptional activity, by site and new letter:
K162: E 0.269; A 0.4; M 0.318; Q 0.612; G 0.11; V 0.232; T 0.273; D 0.27; F 0.177; L 0.417; H 0.273; N 0.185; P 0.15; C 0.329; I 0.164; W 0.206; Y 0.188; S 0.461
K164: W 0.146; M 0.258; E 0.343; G 0.106; A 0.337; P 0.28; Q 0.304; Y 0.307; N 0.306; H 0.316; R 1.17; S 0.326; D 0.173; I 0.252; V 0.218; F 0.167; L 0.298
R160: Y 0.263; Q 0.492; W 0.309; V 0.339
E178: D 0.665; T 1.26; C 0.927; M 0.795; N 0.394; H 0.957; P 0.226; I 0.832; F 0.529; S 1.45; K 1.59; W 0.7; A 0.976; V 0.568; Y 0.632; L 1.02; G 0.795
Q167: P 0.13; A 0.311; E 0.37; G 0.21; F 0.28; T 0.585; W 0.235; S 0.649; H 0.575; R 0.415; N 0.559; D 0.239; L 0.245; M 0.699; K 0.613; V 0.351
R171: G 0.285; N 0.229; K 0.627; W 0.258; S 0.173; C 0.256; M 0.36; E 0.218; H 0.344; P 0.186; D 0.228; V 0.142; T 0.172; L 0.314; I 0.359
E174: T 0.836; D 0.712; V 0.568; P 0.189; F 0.564; K 0.794; S 0.847; H 0.817; G 0.535; L 1.03; Q 1.26; C 1.18; R 1.48
K181: V 0.316; R 0.964; C 0.297; W 0.418; N 0.511; Y 0.36; D 0.296; T 0.491; Q 0.514; H 0.478; M 0.542; S 0.298; G 0.53; E 0.582; P 0.152; L 0.421
L180: R 0.417; I 0.806; K 0.367; W 0.575; M 0.868; N 0.473; P 0.166; C 0.43; D 0.256; Y 0.439; A 0.484; V 0.58; S 0.482; Q 0.399
K161: A 0.3; Y 0.195; T 0.505; W 0.242; L 0.441; P 0.172; M 0.518; R 0.649; I 0.452; G 0.289; F 0.232; N 0.475; D 0.188; S 0.639; C 0.37; E 0.167; V 0.461; H 0.451
L177: F 0.408; A 0.268; Q 0.191; V 0.404; H 0.327; I 0.925; K 0.328; W 0.263; P 0.192; C 0.369; T 0.255; D 0.233; S 0.206; Y 0.528; N 0.361; R 0.3
Q173: D 0.232; R 0.58; W 0.284; T 1.1; H 0.693; V 1.27; S 0.592; F 0.425; L 0.611; E 0.149; A 0.888; G 0.386
A166: D 0.217; L 0.89; T 0.965; Y 0.705; W 0.485; C 1.14; E 0.448; V 0.718; R 0.328; P 0.211; H 0.35; G 0.258; N 0.382; M 0.882
C170: L 0.894; W 0.208; Q 0.604; Y 0.702; E 0.194; H 0.411; N 0.728; R 0.609; T 0.457; D 0.173; F 0.35; P 0.15; A 0.663; S 0.425; G 0.353; K 0.26; M 0.824
T165: E 0.6; K 0.633; W 0.39; F 0.262; R 0.898; Q 0.517; P 0.196; D 0.416; L 0.668; S 1.6; C 1.22; Y 0.379; H 0.785; I 0.755; V 0.976; N 1.38
L163: S 0.142; A 0.118; G 0.179; R 0.163; E 0.196; K 0.168; V 0.545; C 0.422; P 0.149; D 0.0892; N 0.134; Q 0.17; T 0.195; W 0.188; F 0.23; I 0.488; H 0.178
R169: W 0.138; M 0.388; F 0.246; G 0.181; S 0.262; L 0.45; V 0.347; D 0.239; A 0.297; H 0.531; Q 0.379; P 0.132; Y 0.183; C 0.292
Q168: E 0.498; C 0.512; V 0.249; K 0.394; R 0.446; W 0.157; Y 0.173; F 0.256; G 0.391; L 0.433; T 0.711; N 0.781; D 0.417; P 0.186; H 0.394; S 0.477
Q176: H 0.546; A 0.567; I 0.557; L 0.707; W 0.223; R 1.1; N 0.518; G 0.189; P 0.259; S 0.434; K 1.54; D 0.41; C 0.538; V 0.499
R172: I 0.34; L 0.328; K 0.684; D 0.201; G 0.234; F 0.247; Y 0.252; H 0.458; V 0.288; W 0.267; C 0.157; E 0.34; Q 0.364; P 0.241; N 0.41; A 0.396; S 0.428
R175: T 0.382; W 0.507; D 0.345; N 0.379; P 0.102; Y 0.619; I 0.699; E 0.554; H 0.492; Q 0.653; G 0.388; A 0.506; F 0.33; L 0.692; K 1.17; C 0.503
E182: A 0.871
K179: A 0.727; Y 0.661; N 0.51; V 0.388; L 0.546; M 0.465; G 0.4; T 0.568; F 0.421; P 0.213; W 0.364; I 0.633; H 0.616; D 0.403; Q 0.656; C 0.34

— the supplement of paper PMC11811203
